Assay results reported in US20040215400A1, “Computational design of a water-soluble analog of a protein, such as phospholamban and potassium channel KcsA” (priority 2003, published 2004).

Tests used:
WSK-3 = WSK-3 (Streptomyces lividans, UniProt P0A334, L24D/W26E/G43A/Q58A/T61S/R64D/L81R/V93E/S102V/G104A, form not given)
native channel = native channel (Streptomyces lividans, UniProt P0A334); settings: read-out: reported Kdiss, Heginbotham et al. 1999; cited from earlier work
[1] = Sedimentation equilibrium analytical ultracentrifugation, monomer-nmer self-association; format: physicochemical
Procedure: Sedimentation equilibrium was used to rigorously determine the association state and thermodynamics of the observed oligomers. Because WSPLB eluted as a single homogenous species from size exclusion chromatography, and its CD spectra were concentration independent above 100 μM, we initially determined its association state at 113 μM centrifuged at 35,000 rpm. In these conditions, WSPLB sedimented as a single species with a molecular weight of approximately 31,600+/−200, or a pentamer (n=5.04). […] The monomer-pentamer dissociation constant was determined to be 6.34×10^−21 M^4 with a P(1/2)=6 μM, where P(1/2) is the midpoint of the monomer-nmer isotherm in total peptide concentration. […]
Measurements were made at 25° C. using a Beckman XL-1 analytical ultracentrifuge. […] Concentrations were monitored using absorption optics at a wavelength of 275 nm and equilibrium was assessed by the absence of significant change in radial concentration gradients in scans separated by a few hours. […] An uncertainty was estimated of about +10% in the calculated molecular weight of the protein, arising largely from uncertainty in the partial specific volume, which is calculated from a weight average of individual amino acids. […] Association constants were determined similarly, keeping the monomer molecular weight and oligomer number constant, and allowing the equilibrium constant to float. […]

[2] = Thermal denaturation monitored by circular dichroism at 222 nm; format: physicochemical; design: ΔCp: unit not given here
Procedure: All of the peptides were thermally unfolded, monitoring the loss of signal at 222 nm by CD spectroscopy with increasing temperature. Scans taken with 60 s signal averaging time and equilibration of 4 min at each temperature. Concentrations of peptide are 50 and 125 μM. Data were fit to a two-state model (theoretical curves are shown) with a monomer-pentamer equilibrium. […] Previously it has been shown that global fitting of such curves obtained at multiple protein concentrations can be used to confirm the aggregation state and obtain highly accurate measures of the free energy of association. Application of these procedures to WSPLB allows an excellent fit for a monomer-pentamer equilibrium, providing the thermodynamic parameters described in Table 1. The predicted midpoint concentration for the monomer-pentamer isotherm was 4.9 μM (30 kcal/mol) at 25° C., in good agreement with the value of 6 μM (28 kcal/mol) obtained from sedimentation equilibrium.
Conditions are identical to those in FIG. 2. Scans taken with 60 s signal averaging time and equilibration of 4 min at each temperature. Concentrations of both peptides are 50 μM. […] At these concentrations the ΔTm was approximately 8° C., and the ΔΔGunf was 4 kcal/mol. In Table 1, parameters are shown for full length WSPLB and phosphorylated pWSPLB, including ΔGunf, ΔHunf, and ΔCp, all at 1 M standard state, and a reference temperature of 350 K. Tm at 50 μM is also shown. ACP was a global fitting parameter for WSPLB, but held fixed for pWSPLB at the same value as WSPLB.
Thermal unfolding curves of WSPLB (residues 21-52) from 2 to 94° C. are illustrated in FIG. 7. Scans taken with 60 s signal averaging time and equilibration of 4 minutes at each temperature. Conditions and peptide concentrations were identical to those in FIG. 2. […] At higher temperatures a main transition is observed, which depends on the concentration of the peptide. […] In contrast, the main transition corresponds to dissociation of the oligomer to unfolded monomer. The increase in stability of WSPLB (residues 21-52) to WSPLB, also seen in sedimentation equilibrium, is apparent in the increase in Tm which is 76° C. for WSPLB (residues 21-52) versus 55° C. for WSPLB at 50 μM.
All CD spectra were collected on an AVIV 62DS spectropolarimeter, using a 1 mm pathlength quartz cuvette. CD spectra of WSPLB and pWSPLB were collected in 10 mM sodium phosphate pH 7.5, 50 mM NaCl, 1 mM tris (2-carboxyethyl)-phosphine hydrochloride (TCEP-HCl), and 1 mM EDTA while those for WSPLB (residues 21-52) in the same buffer substituted with 50 mM MOPS pH 7. Each wavelength scan from 200-260 nm is an average of four scans with 4 second averaging time per data point at 25° C. All thermal melting curves were collected in the same buffers as their corresponding wavelength scans, with 60 second averaging time and 4 minute equilibration time. The elipticity was measured at 222 nm as a function of increasing temperature (2-94° C.). WSPLB and pWSPLB melting curves were analyzed with Igor Pro® 3.16 (available from WaveMetrics, Inc., Oswego, Oreg. 97035), assuming a two-state unfolding pathway.
where [θ] is mean residue elipticity (deg cm^2 dmol^−1), T° is the midpoint of the transition, ΔH° is the van't Hoff enthalpy at the midpoint (kcal mol^−1), ΔS° is the standard state entropy (kcal mol^−1 K^−1), and ΔCP is the change in heat capacity over the temperature range of the experiment (kcal mol^−1 K^−1). In fitting, the floating parameters are the initial and final [θ] values, the slopes of the folded and unfolded baselines, ΔH, ΔCP, and Tm. The parameters were globally fit to three equilibria schemes, from monomer-tetramer to hexamer, using data collected at 49 and 126 μM. Only the monomer-pentamer scheme provided an adequate fit to the data. ΔCP was held constant for pWSPLB at the value obtained for WSPLB.

[3] = global fit, monomer-pentamer, 1 M standard state, reference temperature 350 K

Sequence of WSK-3 (P0A334 whole entry L24D/W26E/G43A/Q58A/T61S/R64D/L81R/V93E/S102V/G104A, looked up): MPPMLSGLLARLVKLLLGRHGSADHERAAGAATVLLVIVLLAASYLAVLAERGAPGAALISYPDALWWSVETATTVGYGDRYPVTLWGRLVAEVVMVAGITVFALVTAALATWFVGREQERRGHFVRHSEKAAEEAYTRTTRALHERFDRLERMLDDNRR
Sequence of native channel (P0A334 whole entry): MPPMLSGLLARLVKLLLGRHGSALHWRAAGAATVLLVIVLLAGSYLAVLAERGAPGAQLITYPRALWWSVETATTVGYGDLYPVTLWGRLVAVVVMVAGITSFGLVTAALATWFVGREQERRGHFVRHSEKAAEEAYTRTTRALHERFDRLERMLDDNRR

Row | Compound | competition with AgTx2-DNP for binding to WSK-3 (WSK-3; AgTx2-DNP 10 μM, WSK-3 10 μM tetramer, relative to KCl control) | Kd (WSK-3; read-out: Kdiss for TEA, from TEA concentration for 50% total toxin dissociation, assuming Kdiss≦2 μM for AgTx2-DNP) | Kd (native channel) | free energy of association (monomer-pentamer) ([1]; from sedimentation equilibrium) | P(1/2), midpoint of the monomer-nmer isotherm in total peptide concentration ([1]; monomer-pentamer, sedimentation equilibrium, 25° C.) | increase of stability by phosphorylation [2] | Tm at 50 μM ([2]; 50 μM peptide, CD 222 nm, 2-94° C.) | predicted midpoint concentration for the monomer-pentamer isotherm ([2]; at 25° C., from global fit of thermal denaturation) | free energy of association (monomer-pentamer) ([2]; at 25° C., from thermal denaturation) | ΔGunf [2, 3] | ΔHunf [2, 3] | ΔCp ([2]; global fitting parameter for WSPLB, held fixed for pWSPLB at the WSPLB value)
1 | CC[N+](CC)(CC)CC.[Cl-] [TEA, tetraethylammonium chloride] | induces dissociation of AgTx2-DNP from WSK-3 in a concentration-dependent manner | ≤ 80 mM | 3.2 to 22 mM | – | – | – | – | – | – | – | – | –
2 | WSPLB: computationally designed water-soluble analog of phospholamban, full length, expressed in E. coli (MDKVQYLTRSAIRRAISTIEMPQQARQNLQNLYINRCLREICQELKEIRAMLK; WSPLB) | – | – | – | 28 kcal/mol | 6 µM | -0.9 kcal/mol/monomer | 55 °C | 4.9 µM | 30 kcal/mol | 19.2 kcal/mol | 229 kcal/mol | 1.9
